15 molecules from PMC8126837 (2021) can be followed below.

Read-outs that look alike come from different tables or passages of the source.

For test [1], the target named is T1, SARS-CoV-2 receptor-binding domain (RBD), wild type (SARS-CoV-2, UniProt P0DTC2 331-527). Briefly: BLI. A general note: In BLI a coated tip is dipped into the sample, and binding shifts an interference pattern.
Test [2] has as its target T1, SARS-CoV-2 receptor-binding domain …. Briefly: BLI. This is another data set of the same source.
Test [3] concerns the target T2, SARS-CoV-2 spike (recombinant, used in bio-layer interferometry) (SARS-CoV-2, UniProt P0DTC2). As to the kind of experiment: BLI.
The target in test [4] is T1, SARS-CoV-2 receptor-binding domain …. As to the kind of experiment: BLI. This is another data set of the same source.
The target of test [5] is T2, SARS-CoV-2 spike (recombinant, used in …). Briefly: BLI. The source holds these as a separate data set.
Test [6] concerns the target T1, SARS-CoV-2 receptor-binding domain …. As to the kind of experiment: BLI. This is another data set of the same source.
Another test concerns the target SARS-CoV S1 subunit (SARS-CoV, UniProt P59594 14-667).

B1: WNb 36 (VHH)
VHH: QVQLQESGGGLVQPGGSLRLSCAVSGFTLDYYAIGWFRQAPGKEREGVSCISNSGGNTKYADSVKGRFTTSVDNAQNTVYLLMNSLEPEDTAVYYCAAIAATYYSGTYYYQCPHYGMDYWGKGTQVTVSS
Usually Kd stands for the equilibrium constant for the complex coming apart. By koff is commonly meant a measure of how fast the partners let go of each other. B1 displayed a dissociation constant (Kd) in test [1] of 0.43 nM. The molecule further returned a koff in test [2] of 0.000127 s⁻¹.

B2: WNbFc 36 (Fc fusion)
chain: QVQLQESGGGLVQPGGSLRLSCAVSGFTLDYYAIGWFRQAPGKEREGVSCISNSGGNTKYADSVKGRFTTSVDNAQNTVYLLMNSLEPEDTAVYYCAAIAATYYSGTYYYQCPHYGMDYWGKGTQVTVSS
By EC50 is commonly meant the concentration giving half of the maximal effect. Low readings indicate greater potency, high ones weaker potency. As usually defined, the IC50 is the point on the concentration scale where inhibition reaches its midpoint. Low values mean inhibition by little substance, high ones a need for much substance. B2: the figures for the Kd in test [3], in test [4] and in test [1] were < 0.01 nM, 0.61 nM and 0.36 nM, respectively. Moreover, in the test with SARS2 S1, the EC50 was found to be 0.63 nM. The same molecule had an IC50 with SARS2 S1 of 0.32 nM. The koff in test [5] is < 1e-06 s⁻¹; in test [6], 0.000202 s⁻¹.

B3: WNb 19 (VHH)
VHH: QVQLQESGGGLVQPGGSLRLSCAASGSMFSINVMGWYRQASGKQRELVAGITRDGATNYSDSVKGRFTISGDNAKNTVYLQMNSLKPEDTAVYYCNTNVDSVWGSRIDYFGQGTQVTVSS
Molecule B3 came in with a Kd in test [1] of 0.46 nM. The same molecule returned a koff in test [2] of 0.000107 s⁻¹.

B4: WNb 7 (VHH)
VHH: QVQLQESGGGLVQPGGSLRLSCAAPGFTFSSYAMGWFRQVPGKGLEWVSGIYSDGSTYYADSVKGRFTISRDNAKNTVYLQMNSLKPEDTAVYYCAKDRLEGSSWPERDFGSWGQGTQVTVSS
In test [1], B4 displayed a Kd of 0.26 nM. Further, the off-rate constant (koff) in test [2] was 3.19e-05 s⁻¹.

B5: WNbFc 15 (Fc fusion)
chain: QVQLQESGGGLVQPGGSLRLSCAASGFTFSSYLMGWFRQVPGKGLEWVSGIYSDGGTYYADSVKGRFTISRDNAKNTVYLQMNSLKPEDTAVYYCATDRMEGSSWPERDFGSWGQGTQVTVSS
On to B5, for which the Kd was < 0.01 nM in test [3], 0.44 nM in test [4] and 0.25 nM in test [1]. The figures for the EC50 with SARS2 S1 and with SARS-CoV S1 subunit were 1.6 nM and 1.69 nM, respectively. Besides, in the test with SARS2 S1, the IC50 was 1.07 nM. Moreover, the results for the koff in test [5] and in test [6] were < 1e-06 s⁻¹ and 0.000128 s⁻¹, respectively.

B6: WNb 10 (VHH)
VHH: QVQLQESGGGLVQPGGSLRLSCAASGFTFRRYLMGWARQVPGKGLEWVSGIYSDGSTYYADSVKGRFTISRDNAKNTVYLQMNSLKPEDTAVYYCAKDRMDGSTWPERDFGSWGQGTQVTVSS
In test [1], B6 came in with a Kd of 0.68 nM. Also, the koff in test [2] was 9.64e-05 s⁻¹.

B7: WNb 15 (VHH)
VHH: QVQLQESGGGLVQPGGSLRLSCAASGFTFSSYLMGWFRQVPGKGLEWVSGIYSDGGTYYADSVKGRFTISRDNAKNTVYLQMNSLKPEDTAVYYCATDRMEGSSWPERDFGSWGQGTQVTVSS
In turn, B7 registered a Kd in test [1] of 0.14 nM. In test [2], the koff stood at 3.05e-05 s⁻¹.

B8: WNb 53 (VHH)
VHH: QVQLQESGGGLVQPGGSLRLSCAASGFTFSSYLMGWARQVPGKGLEWVAGIYSDGSTYYADSVKGRFIISRDNAKNTVYLQMNSLKPEDTAVYYCAKDRMEDSTWPERDFGSWGQGTQVTVSS
In turn, B8 displayed a Kd in test [1] of 0.64 nM. In test [2], this molecule gave a koff of 0.00013 s⁻¹.

B9: WNb 50 (VHH)
VHH: QVQLQESGGGLVQPGGSLRLSCAASGFTFSSYAMGWFRQVPGKGLEWVSGIYSDGSTYYADSVKGRFTISRDNAKNTVYLQMNSLKPEDTAVYYCAADRMAGSRWPERDFGSWGQGTQVTVSS
Molecule B9 displayed a dissociation constant Kd in test [1] of 0.63 nM. Moreover, the koff in test [2] stood at 0.00013 s⁻¹.

B10: WNbFc 7 (Fc fusion)
chain: QVQLQESGGGLVQPGGSLRLSCAAPGFTFSSYAMGWFRQVPGKGLEWVSGIYSDGSTYYADSVKGRFTISRDNAKNTVYLQMNSLKPEDTAVYYCAKDRLEGSSWPERDFGSWGQGTQVTVSS
On to B10, for which the Kd in test [3] is < 0.01 nM; in test [4] it was 0.7 nM; in test [1] it was 0.35 nM. For the same molecule, the results for the EC50 with SARS2 S1 and in the test with SARS-CoV S1 subunit were 0.46 nM and 1.12 nM, respectively. The midpoint of inhibition with SARS2 S1, the IC50, lay at 0.45 nM. For the same molecule, the koff in test [5] was < 1e-06 s⁻¹; in test [6], 0.000191 s⁻¹.

B11: WNb 23 (VHH)
VHH: QVQLQESGGGLVQPGGSLRLSCAASGFTFKDYAMAWARQVPGKGLEWVSGIYSDGNTYYADSVKGRFTISRDNAKNTVYLRMNSLKPEDTAVYYCATERHPQGAADFGSWGQGTQVTVSS
The molecule B11 gave a Kd in test [1] of 9.03 nM. In test [2], this molecule showed a koff of 0.00245 s⁻¹.

B12: WNb 41 (VHH)
VHH: QVQLQESGGGLVQPGGSLRLSCAVSGFTLDYYAIGWFRQAPGKEREGVSCISSSGGSTNYADSVKGRFTISRDNAKNTVYLQMNGLKPEDTAVYYCAAIAATYYSGSYYYQCPHDGMDYWGKGTQVTVSS
In turn, B12 had a Kd in test [1] of 0.55 nM. In test [2], this molecule yielded a koff of 0.000104 s⁻¹.

B13: WNb 67 (VHH)
VHH: QVQLQESGGGLVQPGGSLRLSCAVSGFTLDYYAIGWFRQAPGKEREGVSCISSSGGSTNYADSVKGRFTISRDNATNTVYLQMNSLKPEDTAVYYCAAIAATYYGGSYYYQCPHYGMDYWGKGTQVTVSS
As for B13, the Kd in test [1] was determined as 0.61 nM. This molecule also showed a koff in test [2] of 0.000212 s⁻¹.

B14: WNb 2 (VHH)
VHH: QVQLQESGGGLVQPGGSLRLSCAVSGFTLDYYAIGWFRQAPGKEREGVSCISSSGGNTKYADSVKGRFTASRDNAKNTFYLQMNSLKPEDTAVYYCAAIAATYYSGSYYFQCPHDGMDYWGKGTQVTVSS
The molecule B14 yielded a Kd in test [1] of 0.36 nM. The molecule also had a koff in test [2] of 7.34e-05 s⁻¹.

B15: WNbFc 2 (Fc fusion)
chain: QVQLQESGGGLVQPGGSLRLSCAVSGFTLDYYAIGWFRQAPGKEREGVSCISSSGGNTKYADSVKGRFTASRDNAKNTFYLQMNSLKPEDTAVYYCAAIAATYYSGSYYFQCPHDGMDYWGKGTQVTVSS
Take B15: the Kd in test [3] is < 0.01 nM; in test [4] it was 0.59 nM. This molecule returned an EC50 with SARS2 S1 of 1.17 nM. Also, the IC50 with SARS2 S1 was 0.66 nM. Also, the koff in test [5] is < 1e-06 s⁻¹; in test [6], 0.000158 s⁻¹.
